{"source": "the supplement of paper PMC12042874", "note": "± gives the uncertainty stated by the source.", "data": [{"experiment": "amyloid nucleation score (Sup35N fusion, yeast selection) (log enrichment); library NNK2; higher = more nucleation; inactive = no reads after selection", "outline": "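Sup35N fusions to peptides of 20 random codons were expressed in psi-negative yeast, induced 24 hours with 100 μM copper sulfate, and grown 7 days at 30°C on medium lacking adenine and uracil. Input and output plasmid inserts were sequenced by Illumina. The nucleation score is the DiMSum log enrichment of output over input reads, centred on the mode score of non-aggregating sequences. Sequences with under 100 input reads were excluded.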", "values": [{"substance": "FCSHVGLVYCTYIMMRVSMR", "amyloid nucleation score": "5.501 ± 0.034"}, {"substance": "DNCRYVKRSSYSRVCAHYKS", "amyloid nucleation score": "-0.627 ± 0.41"}, {"substance": "FDCGGCKNMGF", "amyloid nucleation score": "-1.74 ± 0.62"}, {"substance": "TNIFR", "amyloid nucleation score": "-0.599 ± 1"}, {"substance": "RSTISYDSSAQYCGGWLGLW", "amyloid nucleation score": "-0.717 ± 1"}, {"substance": "FIYVSWRTWSEIVGMCFGVV", "amyloid nucleation score": "-1 ± 0.45"}, {"substance": "TITILV", "amyloid nucleation score": "0.089 ± 0.23"}, {"substance": "NTLSPFQIEFGGWLMGVLFK", "amyloid nucleation score": "0.611 ± 0.81"}, {"substance": "CVFLHSALSQYRVIIVTWYP", "amyloid nucleation score": "-0.237 ± 0.63"}, {"substance": "FFDIVIAERLTVLHVSVVSK", "amyloid nucleation score": "4.59 ± 0.074"}, {"substance": "FPIYFFA", "amyloid nucleation score": "inactive"}, {"substance": "FGYVVVKRPSSMLLRASRDG", "amyloid nucleation score": "-0.619 ± 1"}, {"substance": "AKVCLYIAICLSLVNS", "amyloid nucleation score": "2.98 ± 0.065"}, {"substance": "RFYDFLFLFIPSRIELIMFR", "amyloid nucleation score": "-0.729 ± 1.1"}, {"substance": "LSGLIGG", "amyloid nucleation score": "-0.135 ± 0.55"}, {"substance": "DFYGYRKDFFLEQCPACSLY", "amyloid nucleation score": "-1.38 ± 0.78"}, {"substance": "YCDVWGRRCCDANYMERTAS", "amyloid nucleation score": "1.35 ± 0.38"}, {"substance": "SCWMMFHPNPMQLKFSYCVE", "amyloid nucleation score": "-0.69 ± 0.33"}, {"substance": "FVPSSLEGPLAGCYSAFIFE", "amyloid nucleation score": "inactive"}, {"substance": "TSVIGKSGPRYLFLEC", "amyloid nucleation score": "0.299 ± 0.8"}, {"substance": "LAFTFRSTRRTTSHSEVSSS", "amyloid nucleation score": "1.38 ± 0.43"}, {"substance": "STSQWYRVLVRVVCSPM", "amyloid nucleation score": "0.331 ± 0.4"}, {"substance": "GSLNTLSIFDDE", "amyloid nucleation score": "-0.684 ± 0.64"}, {"substance": "NNHGLRTYIGPYISWLIYFS", "amyloid nucleation score": "2.53 ± 0.17"}, {"substance": "WHSVKMVNMFVGSKVISRSF", "amyloid nucleation score": "5.42 ± 0.07"}, {"substance": "NKTTFSICDAYDGYREWTDN", "amyloid nucleation score": "-1.17 ± 0.45"}, {"substance": "VRFTAWICVYRYKEGWWRSL", "amyloid nucleation score": "-0.417 ± 0.24"}, {"substance": "NRNLDGFLPWNVHEAVGL", "amyloid nucleation score": "-0.003 ± 0.42"}, {"substance": "GPKPGDVSYVYKSCRTHNSP", "amyloid nucleation score": "0.53 ± 0.29"}, {"substance": "IRQAWLYS", "amyloid nucleation score": "0.615 ± 0.13"}, {"substance": "VDVFPAPSHRCGLMNLCNLV", "amyloid nucleation score": "0.969 ± 0.28"}, {"substance": "DLGHTYTSMYGFLTPSRDVD", "amyloid nucleation score": "-0.052 ± 0.5"}, {"substance": "FCTNSYSFMDGTSCWAELRA", "amyloid nucleation score": "0.594 ± 0.47"}, {"substance": "GIFSCRLCSMLIELLMLRIM", "amyloid nucleation score": "-0.505 ± 1.1"}, {"substance": "LCCRCIKVIAALKLNIENHQ", "amyloid nucleation score": "3.65 ± 0.095"}, {"substance": "YERVRRSVYSSMFFSLFNTR", "amyloid nucleation score": "-0.357 ± 1.1"}, {"substance": "NVMKSLFGRC", "amyloid nucleation score": "0.359 ± 0.48"}, {"substance": "ICNALCLYSVNLLPGTLMGI", "amyloid nucleation score": "7.49 ± 0.027"}, {"substance": "FSSSEHVFQVDGGFDKNRPI", "amyloid nucleation score": "-1.47 ± 0.78"}, {"substance": "CGQRCPKC", "amyloid nucleation score": "3.81 ± 0.063"}, {"substance": "RVLADVKRYRECQTRCRDAW", "amyloid nucleation score": "1.04 ± 0.34"}, {"substance": "TRDCLYFVLLILIIYLFGLR", "amyloid nucleation score": "3.12 ± 0.14"}, {"substance": "RFTLIFCGSRESNGG", "amyloid nucleation score": "6.43 ± 0.065"}, {"substance": "RYFLYFCYVGPNSAMFLSR", "amyloid nucleation score": "-0.27 ± 1.1"}, {"substance": "TNCSIMGTFSYFNDCSLGGT", "amyloid nucleation score": "5.247 ± 0.051"}, {"substance": "NNNKI", "amyloid nucleation score": "inactive"}, {"substance": "MVIWFPLEIMIRIRSPL", "amyloid nucleation score": "-0.766 ± 0.48"}, {"substance": "RRFLYPVGRGICMENADPFG", "amyloid nucleation score": "1.29 ± 0.44"}, {"substance": "KDWGFRNTCG", "amyloid nucleation score": "-0.184 ± 1.1"}, {"substance": "RLRNLFSYWLSEERSGPDGW", "amyloid nucleation score": "2.03 ± 0.14"}, {"substance": "SGEVSAVRV", "amyloid nucleation score": "0.852 ± 0.19"}, {"substance": "FNIPGHSH", "amyloid nucleation score": "-1.51 ± 0.78"}, {"substance": "IDPKEMTGDRQWVSFTVRRR", "amyloid nucleation score": "0.574 ± 0.24"}, {"substance": "LVHFNFMCVVARMFDMFF", "amyloid nucleation score": "inactive"}, {"substance": "LKCRVITQSCIPSSINRLDG", "amyloid nucleation score": "-0.02 ± 0.22"}, {"substance": "LLHAVQDHVGLPTVYRRCSR", "amyloid nucleation score": "2.79 ± 0.11"}, {"substance": "MLHSRLAREMHTLVILFFNK", "amyloid nucleation score": "0.05 ± 0.49"}, {"substance": "LKSSNRGNVRKRLLGEDEGT", "amyloid nucleation score": "0.245 ± 0.37"}, {"substance": "FLSLIGKSRS", "amyloid nucleation score": "inactive"}, {"substance": "GTVGVGMS", "amyloid nucleation score": "1.11 ± 0.66"}, {"substance": "RVDARERNELDGIYFIVGSS", "amyloid nucleation score": "-0.271 ± 1"}, {"substance": "MVFVFKDSLIFSRSLYIMEC", "amyloid nucleation score": "-1.34 ± 0.41"}, {"substance": "CYFSLQNSKDMRDLELDAIN", "amyloid nucleation score": "-1.46 ± 0.55"}, {"substance": "NFPRRSRVLKYCITLSSNHS", "amyloid nucleation score": "-0.158 ± 0.5"}, {"substance": "CNCQYHSVWIT", "amyloid nucleation score": "0.392 ± 0.26"}, {"substance": "NPGGMQDEQEVVIWAPTRFL", "amyloid nucleation score": "-0.161 ± 0.39"}, {"substance": "VDCGFYSSIVAFYRYVHVPW", "amyloid nucleation score": "-0.026 ± 0.27"}, {"substance": "LWGYCTMLSEGH", "amyloid nucleation score": "-0.018 ± 0.2"}, {"substance": "FVKYNCIFNASLTCHK", "amyloid nucleation score": "7.686 ± 0.038"}, {"substance": "VGMTTSWMVDPHGGRPGYHS", "amyloid nucleation score": "2.01 ± 0.16"}]}]}
